Biological target: SARS-CoV-2 spike RBD (wild type) (SARS-CoV-2) (UniProt P0DTC2)
Test: BLI

Q: Which Kd does the source give for mNb6(108FFY) (VHH) here?
A: Its Kd is 0.91 nM.
